Patent US20260193348A1 (ANTENGENE BIOLOGICS, published 2026)
Positions count from the first letter of the chain named. Names may count otherwise.

B1: Bis-108+ch147 (bispecific antibody)
heavy 1: not shown
heavy 2: EVQLVQSGAEVKKPGASVKVSCKASGYTFTSYVIHWVRQAPGQGLEWMGYFNPYNDGTKYNEEFKGRVTLTSDKSTSTAYMELRSLRSDDTAVYYCARGGVRRYFDVWGQGTTVTVSSASTKGPSVFPLAPSSKSTSGGTAALGCLVKDYFPEPVTVSWNSGALTSGVHTFPAVLQSSGLYSLSSVVTVPSSSLGTQTYICNVNHKPSNTKVDKKVEPKSCGGGGSGGGGSQVQLQQPGTELVKPGTSVKLSCKASGYTFTSYWMHWVKQRPGQCLEWIGNINPSNGATNYNEKFKSKATLTVDKSSSTAYMQLSSLTSEDSAVYYCARDRSSQYYFDYWGQGTTLTVSSGGGGSGGGGSGGGGSGGGGSDIVMSQSPSSLAVSAGEKVTMSCKSSQSLLNSRSRKNYLAWYQQKPGQSPKLLIYWASTRESGVPDRFTGSGSGTDFTLTISSVQAEDLAVYYCTQSYTLRTFGCGTKLEIKGGGGSGGGGSDKTHTCPPCPAPEAAGGPSVFLFPPKPKDTLMISRTPEVTCVVVDVSHEDPEVKFNWYVDGVEVHNAKTKPREEQYNSTYRVVSVLTVLHQDWLNGKEYKCKVSNKALPAPIEKTISKAKGQPREPQVCTLPPSREEMTKNQVSLSCAVKGFYPSDIAVEWESNGQPENNYKTTPPVLDSDGSFFLVSKLTVDKSRWQQGNVFSCSVMHEALHNHYTQKSLSLSPGK
light: DIQMTQSPSSLSASVGDRVTITCRASQDIGSNLNWLQQKPGKAIKRLIYATFGLDSGVPSRFSGSRSGTDFTLTISSLQPEDFATYYCQQYASFPYTFGGGTKVEIKRTVAAPSVFIFPPSDEQLKSGTASVVCLLNNFYPREAKVQWKVDNALQSGNSQESVTEQDSKDSTYSLSSTLTLSKADYEKHKVYACEVTHQGLSSPVTKSFNRGEC
notes: Fab-scFv-Fab format
B2: Bis-108+147-R35S.L (bispecific antibody)
heavy 1: not shown
heavy 2: EVQLVQSGAEVKKPGASVKVSCKASGYTFTSYVIHWVRQAPGQGLEWMGYFNPYNDGTKYNEEFKGRVTLTSDKSTSTAYMELRSLRSDDTAVYYCARGGVRRYFDVWGQGTTVTVSSASTKGPSVFPLAPSSKSTSGGTAALGCLVKDYFPEPVTVSWNSGALTSGVHTFPAVLQSSGLYSLSSVVTVPSSSLGTQTYICNVNHKPSNTKVDKKVEPKSCGGGGSGGGGSEVQLVQSGAEVKKPGSSVKVSCKASGYTFTSYWMHWVRQAPGQCLEWMGNINPSSGATNYNEKFKSRVTLTVDKSTSTAYMELSSLRSEDTAVYYCARDRSSQYYFDYWGQGTTVTVSSGGGGSGGGGSGGGGSGGGGSDIVMTQSPDSLAVSLGERATINCKSSQSLLNSRSSKNYLAWYQQKPGQPPKLLIYWASTRESGVPDRFSGSGSGTDFTLTISSLQAEDVAVYYCTQSYTLRTFGCGTKVEIKGGGGSGGGGSDKTHTCPPCPAPEAAGGPSVFLFPPKPKDTLMISRTPEVTCVVVDVSHEDPEVKFNWYVDGVEVHNAKTKPREEQYNSTYRVVSVLTVLHQDWLNGKEYKCKVSNKALPAPIEKTISKAKGQPREPQVCTLPPSREEMTKNQVSLSCAVKGFYPSDIAVEWESNGQPENNYKTTPPVLDSDGSFFLVSKLTVDKSRWQQGNVFSCSVMHEALHNHYTQKSLSLSPGK
light: B1 light
notes: Fab-scFv-Fab format
B3: Bis-108+147-N31Y.L (bispecific antibody)
heavy 1: not shown
heavy 2: B2 heavy 2 with N401Y, S405R
light: B1 light
notes: Fab-scFv-Fab format
B4: Bis-108+147-R35K.L (bispecific antibody)
heavy 1: not shown
heavy 2: B2 heavy 2 with S405K
light: B1 light
notes: Fab-scFv-Fab format
B5: Bis-108+147-S32R.L (bispecific antibody)
heavy 1: not shown
heavy 2: B2 heavy 2 with S402R, S405R
light: B1 light
notes: Fab-scFv-Fab format
B6: Bis-108+147-N37K.L (bispecific antibody)
heavy 1: not shown
heavy 2: B2 heavy 2 with S405R, N407K
light: B1 light
notes: Fab-scFv-Fab format
B7: Bis-108+147-S31R.H (bispecific antibody)
heavy 1: not shown
heavy 2: B2 heavy 2 with S262R, S405R
light: B1 light
notes: Fab-scFv-Fab format
B8: Bis-108+147-K36R.L (bispecific antibody)
heavy 1: not shown
heavy 2: B2 heavy 2 with S405R, K406R
light: B1 light
notes: Fab-scFv-Fab format
B9: Bis-108+147-R33A.L (bispecific antibody)
heavy 1: not shown
heavy 2: B2 heavy 2 with R403A, S405R
light: B1 light
notes: Fab-scFv-Fab format
B10: Bis-40E9-L2H3-D99E.H (bispecific antibody)
VH: EVQLVQSGAEVKKPGASVKVSCKASGYTFTSYVIHWVRQAPGQGLEWMGYFNPYNDGTKYNEEFKGRVTLTSDKSTSTAYMELRSLRSDDTAVYYCARGGVRRYFDVWGQGTTVTVSS
VL: DIQMTQSPSSLSASVGDRVTITCRASQDIGSNLNWLQQKPGKAIKRLIYATFGLDSGVPSRFSGSRSGTDFTLTISSLQPEDFATYYCQQYASFPYTFGGGTKVEIK
scFv: EVQLVQSGAEVKKPGSSVKVSCKASGYTFSSYVIHWVRQAPGQCLEWMGYINPYNDVIKYNEKFKGRVTLTSDKSTSTAYMELSSLRSEDTAVYYCARESYYSYDGFAYWGQGTLVTVSSGGGGSGGGGSGGGGSGGGGSEIVLTQSPDFQSVTPKEKVTITCSASSSVSYMHWYQQKPDQSPKRLIYDTSKLASGVPSRFSGSGSGTDFTLTINSLEAEDAATYYCQQWSSNPPTFGCGTKVEIK
notes: L234A/L235A
B11: Bis-40E9-L3H1 (bispecific antibody)
VH: B10 VH
VL: B10 VL
scFv: B10 scFv with Y27G, L70I, S72A, E99D, L186W, F210Y
notes: L234A/L235A
B12: Bis-40E9-L2H4 (bispecific antibody)
VH: B10 VH
VL: B10 VL
scFv: B10 scFv with M48I, V68A, E99D
notes: L234A/L235A
B13: Bis-40E9-L2H1 (bispecific antibody)
VH: B10 VH
VL: B10 VL
scFv: B10 scFv with Y27G, L70I, S72A, E99D
notes: Fab-scFv-Fab (2+1): two humanized anti-GPRC5D Fabs and one anti-CD3 scFv (VH-(GGGGS)4-VL) joined by (GGGGS)2 linkers to CH1 of one Fab and to CH2; L234A/L235A
B14: Bis-40E9-L2H3-D56G.H (bispecific antibody)
VH: B10 VH
VL: B10 VL
scFv: B10 scFv with D56G, E99D
notes: L234A/L235A
B15: Bis-40E9-L2H3-G106A.H (bispecific antibody)
VH: B10 VH
VL: B10 VL
scFv: B10 scFv with E99D, G106A
notes: L234A/L235A

Columns and labels:
[1] = molecular target: T1, GPRC5D on MM.1S cells (human, UniProt Q9NZD1 1-345); experiment: cell-based or functional assay
[2] = molecular target: T1, GPRC5D on MM.1S cells; experiment: cell-based or functional assay; remark: listed apart in the source
[3] = molecular target: T1, GPRC5D on MM.1S cells; experiment: FACS on MM.1S cells
Protocol: The binding affinities of the generated humanized Fab-scFv-Fab bispecific antibodies were determined by FACS analysis. […] (a) Jurkat cells were washed by Staining Buffer (PBS+1% BSA) in round bottom 96-well plate. [0833] (b) Antibody dilutions and cells were added to each well, incubated at 4 degrees for 1 hour. [0834] (c) Cells were spined down at 300 g for 3 minutes, and the supernatants were discarded. [0835] (d) Cells were washed with Staining Buffer. […] (e) Step (d) was repeated and the cells were incubated for 0.5 hours at 4 degrees with secondary antibody in Staining Buffer. [0837] (f) After incubation, step (d)-(e) were repeated. […] (g) Staining Buffer was added and fluorescence signals were recorded by flow cytometry.
The binding affinities of the generated humanized Fab-scFv-Fab bispecific antibodies were determined by FACS analysis. The ATG-Bis-40E9 was used as positive control and hIgG1 isotype was used as negative control. The protocol for FACS analysis is identical to that described in Example 3.2, except that MM.1S cells were used in this example.

[4] = molecular target: T2, CD3 on T cells / Jurkat cells (human, UniProt P07766 23-207; P04234 22-171; P09693 23-182); experiment: FACS on Jurkat cells
T2 construct: whole, on cells; Native CD3 complex on CD3+ T cells isolated from normal donors or on Jurkat cells; also called human CD3; CD3+ T cells
T2 sequence (P07766 23-207, chain 1 of 3): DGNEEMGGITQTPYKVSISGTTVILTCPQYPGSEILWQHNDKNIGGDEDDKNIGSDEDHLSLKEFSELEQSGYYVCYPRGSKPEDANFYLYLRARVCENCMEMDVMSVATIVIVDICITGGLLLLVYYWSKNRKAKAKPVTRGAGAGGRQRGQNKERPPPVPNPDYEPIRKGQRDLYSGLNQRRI
T2 sequence (P04234 22-171, chain 2 of 3): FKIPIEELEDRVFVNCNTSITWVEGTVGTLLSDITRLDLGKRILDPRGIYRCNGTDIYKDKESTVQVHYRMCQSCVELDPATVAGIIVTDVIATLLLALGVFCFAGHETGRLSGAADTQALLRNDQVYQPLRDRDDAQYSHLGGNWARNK
T2 sequence (P09693 23-182, chain 3 of 3): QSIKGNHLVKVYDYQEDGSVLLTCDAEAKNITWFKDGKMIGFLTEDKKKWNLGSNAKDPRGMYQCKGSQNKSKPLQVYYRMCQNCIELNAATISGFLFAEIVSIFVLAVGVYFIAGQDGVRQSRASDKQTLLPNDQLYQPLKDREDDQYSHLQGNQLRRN

T1 sequence (Q9NZD1 whole entry): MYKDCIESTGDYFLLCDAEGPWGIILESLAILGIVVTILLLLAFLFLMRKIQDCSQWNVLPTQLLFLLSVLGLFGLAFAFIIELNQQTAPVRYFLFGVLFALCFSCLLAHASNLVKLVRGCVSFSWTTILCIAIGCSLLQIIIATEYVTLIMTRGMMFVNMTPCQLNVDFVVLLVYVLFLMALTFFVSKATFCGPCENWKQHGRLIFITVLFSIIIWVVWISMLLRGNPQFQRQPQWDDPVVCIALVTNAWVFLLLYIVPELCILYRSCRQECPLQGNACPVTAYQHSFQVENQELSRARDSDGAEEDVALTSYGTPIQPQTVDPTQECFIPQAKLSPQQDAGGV

Binder | IC50 of T-cell dependent cytotoxicity on MM.1S cells [1] [nM] | Top (%) target cell killing, MM.1S cells [1] [%] | EC50, Jurkat-NFAT-Luciferase assay in the presence of MM.1S cells [2] [nM] | Top RLU, Jurkat-NFAT-Luciferase assay in the presence of MM.1S cells [2] [RLU] | EC50 [3] [nM] | Top signal [3] [MFI] | binding result [4]
B1 | 0.53 | 99.4 | 0.11 | 368 | 2.61 | 2260 | 
B2 | 1.64 | 102 | 1.87 | 344 | 1.53 | 1860 | 
B3 |  | 122 | 0.27 | 11.8 | 1.93 | 1930 | 
B4 | 0.61 | 99.9 | 0.47 | 408 | 1.58 | 1740 | 
B5 | 0.54 | 99 | 0.32 | 406 | 1.76 | 2050 | 
B6 | 1490 |  | 0.15 | 424 | 2.15 | 1900 | 
B7 | 4.43 | 159 | 0.25 | 334 | 1.5 | 2030 | 
B8 | 1940 |  | 0.76 | 326 | 1.56 | 1840 | 
B9 | 1.51 | 45.1 | 2.48 | 287 | 1.87 | 1650 | 
B10 |  |  |  |  |  |  | binds
B11 |  |  |  |  |  |  | binds
B12 |  |  |  |  |  |  | binds
B13 |  |  |  |  |  |  | binds
B14 |  |  |  |  |  |  | binds
B15 |  |  |  |  |  |  | binds
